Data on nine molecules can be found in paper PMC11310338.

Where two headings read alike, the source gives them in different places.

For data set [1], the target named is T1, SCAF4-CID (human, UniProt O95104 1-139).
T1 sequence: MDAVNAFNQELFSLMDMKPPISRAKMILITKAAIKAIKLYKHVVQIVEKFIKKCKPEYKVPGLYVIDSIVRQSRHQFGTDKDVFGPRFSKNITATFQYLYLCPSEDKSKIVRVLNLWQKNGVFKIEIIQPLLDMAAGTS
The data set is described as follows: competition FP.

Data set [2] addresses T1, SCAF4-CID. The data set is described as follows: SPR.
Data set [3] concerns the target T2, SCAF8-CID (human, UniProt Q9UPN6 1-139).
T2 sequence: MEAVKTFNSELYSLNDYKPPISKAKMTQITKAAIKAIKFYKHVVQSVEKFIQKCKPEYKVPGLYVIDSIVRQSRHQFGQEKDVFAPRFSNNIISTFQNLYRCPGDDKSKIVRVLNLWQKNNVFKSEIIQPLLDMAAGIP
As to the kind of experiment: competition FP.

Data set [4] has as its target T2, SCAF8-CID. The data set is described as follows: SPR. A general note: SPR reads the build-up and loss of mass on a sensor chip optically.
The target in data set [5] is T1, SCAF4-CID. As to the kind of experiment: competition FP. The source holds these as a separate data set.
The target in data set [6] is T1, SCAF4-CID. As to the kind of experiment: fluorescence polarization. Background: Polarisation of emitted light reports the rotation of a fluorescent probe.
The target in data set [7] is T3, WDR5 (human, UniProt P61964 1-334). As to the kind of experiment: SPR.
Another data set addresses WDR5 L240K (human, UniProt P61964 1-334, L240K). As to the kind of experiment: fluorescence polarization.
Data set [8] has as its target T3, WDR5. As to the kind of experiment: competition FP.
The target of data set [9] is T3, WDR5. The data set is described as follows: fluorescence polarization.

B1: B2_8-nt (ssDNA)
DNA: AGGTGGGT
With B1, in the data set with SCAF4-CID [1], the IC50 was determined as 1040 ± 419 nM. Moreover, binding with SCAF4-CID [2] was put at a Kd of 297 ± 48.1 nM.

B2: F1_8-nt (ssDNA)
DNA: GGTGGGGA
In the case of B2, the IC50 with SCAF4-CID [1] came to 554 ± 106 nM. The molecule also registered a Kd with SCAF4-CID [2] of 88.6 ± 15.1 nM.

B3: SCAF4_LS (D2_5-nt) (ssDNA)
DNA: GTGGG
For B3, the IC50 with SCAF8-CID [3] stood at 1960 ± 240 nM; in the data set with SCAF4-CID [5], 2750 ± 682 nM. Further, the values for the Kd with SCAF8-CID [4], with SCAF4-CID [2] and in the data set with SCAF4-CID [6] were 76.4 ± 7.33 nM, 140 ± 40.1 nM and 189 ± 40.1 nM, respectively.

B4: WMiApt-1 (structured_DNA)
DNA: GGGGGCTGGACCCCTCAACT
For B4, the Kd with WDR5 [7] was determined as 138 ± 86.7 nM; with WDR5 [9], 797 ± 95.2 nM. For the same molecule, the binding result in the data set with WDR5 L240K is listed as “binds”. Also, the IC50 in the data set with WDR5 [8] is 431 ± 134 nM.

B5: SRiApt-1 (F3_11-nt) (ssDNA)
DNA: GGGGTGGGGAG
In the data set with SCAF8-CID [3], B5 registered an IC50 of 1500 ± 690 nM. Further, the Kd with SCAF8-CID [4] worked out at 56.3 ± 7.42 nM; with SCAF4-CID [2] it was 58.4 ± 5.8 nM.

B6: WDR5 lead sequence (H4) (ssDNA)
DNA: GGACC
For the molecule B6, the concentration for half-maximal inhibition (IC50) in the data set with WDR5 [8] was found to be 8500 ± 4250 nM.

B7: SRiApt-3 (ssDNA)
DNA: TTAAAGGGGTGGGGAGTCAT
For B7, the IC50 with SCAF8-CID [3] was determined as 291 ± 19.7 nM; in the data set with SCAF4-CID [1], 285 ± 26.6 nM. In addition, the Kd with SCAF4-CID [2] came to 22.7 ± 1 nM.

B8: D1_8-nt (ssDNA)
DNA: TGGTGGGA
B8 gave an IC50 with SCAF4-CID [1] of 1270 ± 864 nM.

B9: SRiApt-2 (F7_11-nt_B) (ssDNA)
DNA: CAGGTGGGTTC
As to B9, the IC50 with SCAF8-CID [3] is 2690 ± 1430 nM; with SCAF4-CID [1], 400 ± 143 nM. The molecule further returned a Kd in the data set with SCAF8-CID [4] of 90.5 ± 25.8 nM.

In general, IC50 refers to the concentration that inhibits the measured activity by half. Broadly, the Kd is the concentration at which binding is half-saturated. High values mean weaker binding, low ones tighter binding.
